Reference: patent CN113004416A (HEFEI HANKEMAB BIOTECHNOLOGY CO LTD, dated 2021)

Tests used:
[1] = target: T1, 细胞表面HER2抗原 (HER2 on SKOV3, N87, MCF-7/HER2, MCF-7, JIMT-1, AC16 cells) (human, UniProt P04626 23-1255); experiment: flow cytometry on MCF-7/HER2 cells
T1 construct: whole, on cells

[2] = target: T1, 细胞表面HER2抗原 (HER2 on SKOV3, N87, …); experiment: flow cytometry on JIMT-1 cells
[3] = target: T1, 细胞表面HER2抗原 (HER2 on SKOV3, N87, …); experiment: flow cytometry on AC16 cells
[4] = target: T2, HER2抗原 (human HER2/ErbB2 in lysate of T6-17 cells, coated on ELISA plate) (human, UniProt P04626 23-1255); experiment: ELISA on coated T6-17 cell lysate
T2 construct: The antigen is a crude detergent lysate of cells with high membrane expression of human HER2, not a purified protein

[5] = target: T1, 细胞表面HER2抗原 (HER2 on SKOV3, N87, …); experiment: flow cytometry on SKOV3 cells
[6] = target: T1, 细胞表面HER2抗原 (HER2 on SKOV3, N87, …); experiment: flow cytometry on N87 cells
[7] = target: 细胞表面4-1BB抗原 (human 4-1BB on CHO-K1-Hu4-1BB stable cells; CD137 on lymphocytes) (human); experiment: flow cytometry on CHO-K1-Hu4-1BB cells
细胞表面4-1BB抗原 (human 4-1BB on CHO-K1-Hu4-1BB stable cells; CD137 on lymphocytes) (human), sequence (chain, as listed by the source): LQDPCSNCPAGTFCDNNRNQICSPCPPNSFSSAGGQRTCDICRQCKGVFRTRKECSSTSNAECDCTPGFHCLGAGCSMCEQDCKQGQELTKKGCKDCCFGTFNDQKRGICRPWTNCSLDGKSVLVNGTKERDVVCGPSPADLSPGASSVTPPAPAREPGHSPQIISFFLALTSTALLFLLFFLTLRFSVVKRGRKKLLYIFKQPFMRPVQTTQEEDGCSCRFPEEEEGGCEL

[8] = target: 人4-1BB抗原 (recombinant, purified from 293 cell supernatant by Protein A) (human); experiment: ELISA on coated 4-1BB antigen
人4-1BB抗原 (recombinant, purified from 293 cell supernatant by Protein A) (human), sequence (chain, as listed by the source): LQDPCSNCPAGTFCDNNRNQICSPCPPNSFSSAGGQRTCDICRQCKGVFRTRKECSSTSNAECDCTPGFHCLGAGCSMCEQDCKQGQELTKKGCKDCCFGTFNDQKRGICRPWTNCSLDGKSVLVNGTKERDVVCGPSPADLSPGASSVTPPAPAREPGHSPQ

Binder	EC50 [1] [µg/mL]	EC50 [2] [µg/mL]	EC50 [3] [µg/mL]	EC50 [4] [µg/mL]	EC50 [5] [µg/mL]	EC50 [6] [µg/mL]	EC50 [7] [µg/mL]	EC50 [8] [µg/mL]
抗人HER2单克隆抗体 Trastuzumab (Herceptin) (antibody, V domains shown, IgG1, kappa; also called 曲妥珠单抗) VH: not shown VL: DIQMTQSPSSLSASVGDRVTITCRASQDVNTAVAWYQQKPGKAPKLLIYSASFLYSGVPSRFSGSRSGTDFTLTISSLQPEDFATYYCQQHYTTPPTFGGGTKLTVLG	1.39	1.1	0.851	0.104	1.23	2	–	–
抗人4-1BB单克隆抗体 HuB6 (antibody, V domains shown, Monoclonal antibody; also called Hanke10F4 (专利申请201911105611.1)) VH: QVQLQESGPGLVKPSETLSITCTVSGSSLTSYGVHWVRQPPGKGLEGLGVIWPGGSTNYNSALMSRLTISKDNSKSQVSLKMSSLTAADTAMYYCARVTGTWYFDVWGQGTTVTVSS VL: DIQMTQSPSSLSASLGDRVTISCSASQGISNYLNWYQQKPDGTVKLLIYYTSTLHSGVPSRFSGSGSGTDFTLTISSLQPEDVATYYCQQYSKLPWTFGGGTKLEIK	–	–	–	–	–	–	2.49	0.00634
